Residue numbers refer to the chain shown, from its start. Numbers in names are those of the source.
B1: AnxA5 triple mutant R16E/K27E/K56E (natural protein, rat)
chain: ALRGTVTDFSGFDGEADAEVLRKAMEGLGTDEDSILNLLTARSNAQRQQIAEEFETLFGRDLVNDMKSELTGKFEKLIVALMKPSRLYDAYELKHALKGAGTDEKVLTEIIASRTPEELRAIKQAYEEEYGSNLEDDVVGDTSGYYQRMLVVLLQANRDPDTAIDDAQVELDAQALFQAGELKWGTDEEKFITILGTRSVSHLRRVFDKYMTISGFQIEETIDRETSGNLENLLLAVVKSIRSIPAYLAETLYYAMKGAGTDDHTLIRVIVSRSEIDLFNIRKEFRKNFATSLYSMIKGDTSGDYKKALLLLCGGEDD
B2: AnxA5 triple mutant R16E/K27E/K191E (natural protein, rat)
chain: B1 chain with E55K, K190E
B3: AnxA5 single mutant R23E (natural protein, rat)
chain: B1 chain with E15R, R22E, E26K, E55K
B4: AnxA5 double mutant K27E/K191E (natural protein, rat)
chain: B1 chain with E15R, E55K, K190E
B5: AnxA5 single mutant K191E (natural protein, rat)
chain: B1 chain with E15R, E26K, E55K, K190E
B6: AnxA5 single mutant K56E (natural protein, rat)
chain: B1 chain with E15R, E26K
B7: AnxA5 triple mutant R23E/K27E/K191E (natural protein, rat)
chain: B1 chain with E15R, R22E, E55K, K190E
B8: AnxA5 single mutant K27E (natural protein, rat)
chain: B1 chain with E15R, E55K
B9: AnxA5 single mutant R16E (natural protein, rat)
chain: B1 chain with E26K, E55K

Molecular target: the molecule itself
Test: 2D crystallisation on lipid monolayers, negative-stain TEM

| Protein | binding result |
| --- | --- |
| B1 | binds |
| B2 | binds |
| B3 | binds |
| B4 | binds |
| B5 | binds |
| B6 | binds |
| B7 | binds |
| B8 | binds |
| B9 | binds |
